According to PMC5107993, “Glutathione-conjugating and membrane-remodeling activity of GDAP1 relies on amphipathic C-terminal domain” (Scientific Reports, 2016):

Molecular target: the molecule itself
Assay: SEC; Superdex 200 10/300 in 20 mM Tris pH 8.0, 100 mM NaCl, 1 mM DTT, 1 mM EDTA; peak fractions re-chromatographed under identical conditions; monomer to dimer

B1: GDAP1 T288X-6xHis (domain or fragment, human, UniProt Q8TB36 1-287, looked up)
chain: MAERQEEQRGSPPLRAEGKADAEVKLILYHWTHSFSSQKVRLVIAEKALKCEEHDVSLPLSEHNEPWFMRLNSTGEVPVLIHGENIICEATQIIDYLEQTFLDERTPRLMPDKESMYYPRVQHYRELLDSLPMDAYTHGCILHPELTVDSMIPAYATTRIRSQIGNTESELKKLAEENPDLQEAYIAKQKRLKSKLLDHDNVKYLKKILDELEKVLDQVETELQRRNEETPEEGQQPWLCGESFTLADVSLAVTLHRLKFLGFARRNWGNGKRPNLETYYERVLKRK
notes: GDAP1, human (recombinant human GDAP1), truncated by a stop in place of T288 (T288X), lacks TMD and HD1; cloned into vector pFL of the MultiBac system; not shown: His6, C-terminal, kept
  stoichiometry N: 2

B2: GDAP1 T318X-6xHis (domain or fragment, human, UniProt Q8TB36 1-317, looked up)
chain: MAERQEEQRGSPPLRAEGKADAEVKLILYHWTHSFSSQKVRLVIAEKALKCEEHDVSLPLSEHNEPWFMRLNSTGEVPVLIHGENIICEATQIIDYLEQTFLDERTPRLMPDKESMYYPRVQHYRELLDSLPMDAYTHGCILHPELTVDSMIPAYATTRIRSQIGNTESELKKLAEENPDLQEAYIAKQKRLKSKLLDHDNVKYLKKILDELEKVLDQVETELQRRNEETPEEGQQPWLCGESFTLADVSLAVTLHRLKFLGFARRNWGNGKRPNLETYYERVLKRKTFNKVLGHVNNILISAVLPTAFRVAKKRAP
notes: GDAP1, human (recombinant human GDAP1), truncated by a stop in place of T318 (T318X), lacks the TMD, keeps HD1; cloned into vector pFL of the MultiBac system; the methods print the name as T3188X; also called GDAP1 T3188X; not shown: His6, C-terminal, kept
  stoichiometry N: 2
